# Test results published in patent US12134663B2, “Cationic peptides for activating Lck” (Interk Peptide Therapeutics Limited, priority 2018, dated 2024).
# Entries after “also recorded” stand apart in the source; their conditions may differ. Where no end group is shown, it is not given here. [ ]: non-standard residue; d: D form. 2Adod = 2-amino-dodecanoic acid; Orn = NCCC[C@H](N)C(=O)O
# Tests used:
# [1] = target: T1, Lck (Homo sapiens, UniProt P06239); experiment: Lck Activity above control (1µM)
# T1 construct: purchased Eurofins Pharma Discovery Services UK Limited
# Procedure: First copying reader's note: The Peptide column holds the sequence together with the SEQ ID NO and the peptide code; the activity was measured at 1µM peptide, as the head states.
# [2] = target: T1, Lck; experiment: Lck Activity above control (1 µM)
# Procedure: Table printed on a drawing sheet, FIG. 4
# (§1) Head of the field: Lck Activity above control (1 µM)
# First copying reader's note: The first column holds the sequence together with the SEQ ID NO and peptide code in one cell; activity was measured at 1 µM peptide.
# (§2) Where the first naming reader finds the target: head: Lck Activity above control (1 µM)
# [3] = target: T1, Lck; experiment: Lck Activity above control (1 µM); remark: listed apart in the source
# Procedure: Table printed on a drawing sheet, FIG. 5
# as §1
# First copying reader's note: The Peptide column holds the sequence together with its SEQ ID NO and IK code in brackets; the activity was measured at 1 µM peptide and the % sign stands in the cells.
# as §2
# [4] = target: T1, Lck; experiment: In vitro Lck activation kinase study (Eurofins); type: biochemical; conditions: for Lck activation (in words): peptide 1 μM where stated
# Procedure: The ability of polypeptides of the present invention to activate Lck was examined in vitro. Lck is member of the Src family of tyrosine kinases. […] All results in are percentage Lck activity relative to control (100%).
# Test polypeptides were assessed at a concentration of 1.0 μM.
# The ability of polypeptides of the present invention to activate Src family kinases was examined in vitro. Kinase activation studies utilising peptides were carried out as described in Example 1, and all kinase activity values are shown as percentage relative to control.
# The ability of polypeptides comprising both lysine and arginine to activate Lck in vitro was examined. Lck activation studies utilising peptides were carried out as described in Example 1, and all kinase activity values are shown as percentage relative to control.
# Target sequence in this assay (P06239 whole entry): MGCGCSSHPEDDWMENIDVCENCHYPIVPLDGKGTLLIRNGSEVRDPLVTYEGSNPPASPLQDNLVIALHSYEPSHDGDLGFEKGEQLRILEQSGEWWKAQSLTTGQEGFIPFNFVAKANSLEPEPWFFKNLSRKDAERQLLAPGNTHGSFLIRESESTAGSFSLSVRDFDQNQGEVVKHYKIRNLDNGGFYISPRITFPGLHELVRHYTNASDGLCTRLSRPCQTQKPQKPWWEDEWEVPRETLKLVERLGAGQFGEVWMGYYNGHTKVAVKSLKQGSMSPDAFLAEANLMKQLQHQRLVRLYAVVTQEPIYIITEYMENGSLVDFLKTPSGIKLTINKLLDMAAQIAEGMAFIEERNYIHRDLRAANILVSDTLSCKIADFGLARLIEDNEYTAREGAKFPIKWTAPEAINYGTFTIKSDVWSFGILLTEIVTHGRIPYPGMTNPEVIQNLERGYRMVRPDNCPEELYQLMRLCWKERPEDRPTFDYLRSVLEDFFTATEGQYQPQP
# [5] = tested on: Fgr; experiment: Lck Activity above control (1 µM) | Fgr
# Procedure: Table printed on a drawing sheet, FIG. 2
# Head of the field: Lck Activity above control (1 µM) | Fgr
# First copying reader's note: Kinase activity above control for each Src family kinase at 1 µM peptide; the cell for IK00800/Fgr is printed as '%' without a digit.
# Where the first naming reader finds the target: head: Lck Activity above control (1 µM) | Fgr
substance,measurement,setting,value
"RRRRRR (SEQ ID NO: 3, IK00600)",Lck Activity above control (1 µM),[1],0%
"OrnOrnOrnOrnOrnOrnOrnOrnOrnOrn (SEQ ID NO: 15, 10 Orn)",Lck Activity above control (1 µM),[1],13%
"RSKAKNPLYR-RRRRRRRR-(2Adod)4-NH2 (SEQ ID NO: 65, IK14804) (RSKAKNPLYRRRRRRRRR-{2Adod-2Adod-2Adod-2Adod-NH2})",Lck Activity above control (1 µM),[1],468%
"RSKAKNPLY-KKKKKKKKK (SEQ ID NO: 44, IK94K90)",Lck Activity above control (1 µM),[2],49%
"RSKAKNPLYR (SEQ ID NO: 31, IK14000)",Lck Activity above control (1 µM),[2],0%
"RRRRR (SEQ ID NO: 2, IK00500)",Lck Activity above control (1 µM),[1],0%
"RRRRRRRR-HHHHHHHHHH-RSKAKNPLYR (SEQ ID NO: 52, IK81140) (RRRRRRRRHHHHHHHHHHRSKAKNPLYR)",Lck Activity above control (1 µM),[3],567%
"RVKVKVVVV (SEQ ID NO: 55, IK95000)",Lck Activity above control (1 µM),[3],518%
Branched < RSKAKNPLY-RRRRRRRRR-HHHHHHHHHH (RSKAKNPLYRRRRRRRRRHHHHHHHHHH; also: branched (1)..(28)) [Br IK14810],Lck activation (in words),[4],Substantially increased Lck activity
"HHHHHHHHHH (SEQ ID NO: 14, 10His)",Lck Activity above control (1 µM),[1],0%
[Orn][Orn][Orn][Orn][Orn][Orn][Orn][Orn][Orn][Orn] [10 Orn],Lck activation (in words),[4],Negligible Lck activity
"KEKLKNPLFK-RRRRRRRR-HHHHHHHHHH (SEQ ID NO: 64, IKB2810) (KEKLKNPLFKRRRRRRRRHHHHHHHHHH)",Lck Activity above control (1 µM),[3],379%
"RSKAKNPLY-RRRRRRRRR-HHHHHHHHHHHH (SEQ ID NO: 49, IK14820) (RSKAKNPLYRRRRRRRRRHHHHHHHHHHHH)",Lck Activity above control (1 µM),[3],556%
"RRRRRRRR (SEQ ID NO: 4, IK00800)",Lck Activity above control (1 µM),[1],126%
"RRRRRRRRRRRRRR-OH (SEQ ID NO: 11, IK014OH)",Lck Activity above control (1 µM),[1],156%
"RRRRRRRRRRRRRRRRRRRR (SEQ ID NO: 12, IK00200) (RRRRRRRRRRRRRRRRRRRRR)",Lck Activity above control (1 µM),[1],279%
"RSKAK-RRR (SEQ ID NO: 28, IK50300) (RSKAKRRR)",Lck Activity above control (1 µM),[2],0%
"RSKAK-RRRR (SEQ ID NO: 29, IK50400) (RSKAKRRRR)",Lck Activity above control (1 µM),[2],0%
"RRRR (SEQ ID NO: 1, IK00400)",Lck Activity above control (1 µM),[1],0%
"RRRRRRRRRRRRRR (SEQ ID NO: 9, IK01400)",Lck Activity above control (1 µM),[1],351%
"RSKAKNPLY-RKRKRKRKRK (SEQ ID NO: 54, IK94RK0) (RSKAKNPLYRKRKRKRKRK)",Lck Activity above control (1 µM),[3],456%
RRRRRR [SEQ ID NO: 3],Lck activation (in words),[4],do not activate Lck
"RSKAKNPLY-RRRRRRRRR-GPLG (SEQ ID NO: 41, IK148MP9) (RSKAKNPLYRRRRRRRRRGPLG)",Lck Activity above control (1 µM),[2],320%
"RRRRRRRR-HHHHHHHHHH (SEQ ID NO: 19, IK00810) (RRRRRRRRHHHHHHHHHH)",Lck Activity above control (1 µM),[1],259%
"RVKVKVVVV-RHRHRHRHRHRHRHRH-HH (SEQ ID NO: 61, IK52820) (RVKVKVVVVRHRHRHRHRHRHRHRHHH)",Lck Activity above control (1 µM),[3],408%
KKKKKKKKKK [10Lys],Lck Activity above control (1 µM) | Fgr,[5],0%
"RSKAK-R (SEQ ID NO: 26, IK50100) (RSKAKR)",Lck Activity above control (1 µM),[2],0%
RSKAK [IK5000],Lck activation (in words),[4],no or negligible Lck activation
"KKKKKKKK-HHHHHHHHHH (SEQ ID NO: 18, IK00K10)",Lck Activity above control (1 µM),[1],70%
RRRR [SEQ ID NO: 119],Lck activation (in words),[4],do not activate Lck
HHHHHHHHHH [10His],Lck activation (in words),[4],No increase in Lck activity; also recorded: did not induce any activation of Lck
RVKVK-RRRRRRRRR-HHHHHHHHHH (RVKVKRRRRRRRRRHHHHHHHHHH) [IK50810],increase in Lck activity,"[4]; peptide 1 μM, relative to control",778%
"RRRRRRRRRRRR (SEQ ID NO: 8, IK01200)",Lck Activity above control (1 µM),[1],401%
"RSKAKNPLY (SEQ ID NO: 30, IK94000)",Lck Activity above control (1 µM),[2],0%
"RVKVKVVVVR-RRRRRRRR-(2Adod)4-NH2 (SEQ ID NO: 66, IK15804) (RVKVKVVVVRRRRRRRRR-{2Adod-2Adod-2Adod-2Adod-NH2})",Lck Activity above control (1 µM),[1],335%
"RVKVKVVVV-RRRRRRRRR (SEQ ID NO: 58, IK15800) (RVKVKVVVVRRRRRRRRR)",Lck Activity above control (1 µM),[3],479%
RRRRR [SEQ ID NO: 2],Lck activation (in words),[4],do not activate Lck
"RRRRRRRR-RVKVKVVVV-R (SEQ ID NO: 59, IK80150) (RRRRRRRRRVKVKVVVVR)",Lck Activity above control (1 µM),[3],520%
"RVKVKVVVV-RRRRRRRR (SEQ ID NO: 57, IK15700) (RVKVKVVVVRRRRRRRR)",Lck Activity above control (1 µM),[3],512%
rskaknplyrrrrrrrrr ([dR][dS][dK][dA][dK][dN][dP][dL][dY][dR][dR][dR][dR][dR][dR][dR][dR][dR]) [IKD14800],Lck Activity above control (1 µM) | Fgr,[5],0%
"HHH-RRRRRRRRR-HHH (SEQ ID NO: 16, IK03930) (HHHRRRRRRRRRHHH)",Lck Activity above control (1 µM),[1],386%
"HHHHH-RRRRRRRRR-HHHHH-RSKAKNPLYR (SEQ ID NO: 51, IK59514) (HHHHHRRRRRRRRRHHHHHRSKAKNPLYR)",Lck Activity above control (1 µM),[3],441%
"RSKAKNPLY-RRRRRRRRR-HHHHH (SEQ ID NO: 46, IK14510) (RSKAKNPLYRRRRRRRRRHHHHH)",Lck Activity above control (1 µM),[3],524%
"RVKVKVVVV-RRRRRRRRR-HHHHHHHHHH (SEQ ID NO: 60, IK50810) (RVKVKVVVVRRRRRRRRRHHHHHHHHHH)",Lck Activity above control (1 µM),[3],778%
"r s k a k n p l y - r r r r r r r r r (SEQ ID NO: 129, IKD14800) ([dR][dS][dK][dA][dK][dN][dP][dL][dY][dR][dR][dR][dR][dR][dR][dR][dR][dR])",Lck Activity above control (1 µM),[2],490%
"HHHHH-RSKAKNPLY-RRRRRRRRR-HHHHH (SEQ ID NO: 53, IK51455) (HHHHHRSKAKNPLYRRRRRRRRRHHHHH)",Lck Activity above control (1 µM),[3],685%
"RSKAKNPLY-RRRR (SEQ ID NO: 32, IK14300) (RSKAKNPLYRRRR)",Lck Activity above control (1 µM),[2],0%
"RSKAKNPLY-RRRRRRRRR-NH2 (SEQ ID NO: 24, IK14800) (RSKAKNPLYRRRRRRRRR-NH2)",Lck Activity above control (1 µM),[1],377%
"RRRRRRRRRR (SEQ ID NO: 7, IK00100)",Lck Activity above control (1 µM),[1],389%
RSKAKNPLY-RRRR (RSKAKNPLYRRRR) [SEQ ID NO: 32],Lck activation (in words),[4],no Lck activation
"RVKVKVVVV-RRRRR (SEQ ID NO: 56, IK15400) (RVKVKVVVVRRRRR)",Lck Activity above control (1 µM),[3],382%
"DSEAENPLY-DDDDDDDDD-NH2 (SEQ ID NO: 23, IKDE800) (DSEAENPLYDDDDDDDDD-NH2)",Lck Activity above control (1 µM),[1],0%
DDDDDDDDD [IKD9],Lck activation (in words),[4],does not activate Lck
same,Lck activation (in words),[4]; listed as DDDDDDDDD,does not increase the activity of Lck
"HHHHH-RRRRRRRRR-HHHHH (SEQ ID NO: 17, IK05950) (HHHHHRRRRRRRRRHHHHH)",Lck Activity above control (1 µM),[1],286%
RVKVKVVVV [IK95000],Lck activation (in words),[4],substantial increases in Lck activity
"DDDDDDDDD-NH2 (SEQ ID NO: 21, IKD9)",Lck Activity above control (1 µM),[1],0%
"IAGQ-RSKAKNPLY-RRRRRRRRR (SEQ ID NO: 40, IKM14800) (IAGQRSKAKNPLYRRRRRRRRR)",Lck Activity above control (1 µM),[2],454%
"Branched < RSKAKNPLY-RRRRRRRRR-HHHHHHHHHH (SEQ ID NO: 48, Br IK14810) (RSKAKNPLYRRRRRRRRRHHHHHHHHHH; also: branched (1)..(28))",Lck Activity above control (1 µM),[3],596%
